Consider one molecule from patent US20170349943, “METHODS FOR DETECTING ENHANCED NMDA RECEPTOR FUNCTION AND USES THEREOF” (INOVA HEALTH SYSTEM, published 2017).

This data set deals with T1, Elk-1 (Homo sapiens, UniProt P19419 P19419:1-428).
T1 sequence: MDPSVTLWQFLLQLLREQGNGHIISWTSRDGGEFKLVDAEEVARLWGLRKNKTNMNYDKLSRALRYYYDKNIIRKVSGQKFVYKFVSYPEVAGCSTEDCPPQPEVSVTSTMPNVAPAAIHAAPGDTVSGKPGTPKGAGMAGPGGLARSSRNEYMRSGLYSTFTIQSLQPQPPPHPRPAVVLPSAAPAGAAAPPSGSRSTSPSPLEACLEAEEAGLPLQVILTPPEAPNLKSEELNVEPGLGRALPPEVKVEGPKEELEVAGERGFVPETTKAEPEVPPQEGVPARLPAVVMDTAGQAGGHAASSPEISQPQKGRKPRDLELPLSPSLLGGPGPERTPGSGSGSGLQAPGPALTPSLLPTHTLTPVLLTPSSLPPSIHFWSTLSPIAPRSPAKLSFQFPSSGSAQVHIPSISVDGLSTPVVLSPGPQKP
The data set can be described thus: EMSA; bound to a greater extent than G allele; 50 mM HEPES pH 7.5, 10 mM MgCl2, on ice 1 h, then Elk-1 antibody. The note with it: tags: recombinant human Elk-1, Sigma Aldrich. The protocol: FIG. 2 depicts binding of recombinant Elk-1 protein (an ETS transcription factor) to double stranded DNAs containing the single nucleotide polymorphism (SNP) rs3764030 variant A allele from the human GRIN2B gene promoter. Double-stranded DNA targets (Methods) were sequentially incubated with 1 μg recombinant human Elk-1 protein in EMSA buffer, then incubated with the Elk-1 antibody 20 minutes. […] Samples were electrophoresed through 6% polyacrylamide gels in HEPES buffer pH 6.3, without polydldC. The gel was then stained with the SYBR Green to visualize DNA and SYPRO Ruby for protein bound to DNA. The stained gel was scanned using G:BOX (Syngene, US) for imaging. Elk-1 bound to DNA is indicated by the arrow.
The complementary pairs of DNA oligonucleotides were first annealed in Biorad C1000 thermocycler with 1° C./1 min decreasing from 95° C. to 20° C. The annealing buffer composition was 10 mM Tris-HCl pH 8.0, 1 mM EDTA and 50 mM NaCl. The annealed dsDNA was then incubated with 1 μg recombinant human Elk-1 protein (Sigma Aldrich, US) on ice for 1 hour in EMSA buffer, then incubated with the Elk-1 antibody (SC-355)(Santa Cruz Technology, US) 20 minutes in room temperature. The compositions of EMSA buffer was 50 mM HEPES pH7.5, 10 mM MgCl₂, 5% glycerol, 1 mM DTT, 0.3% BSA and 1 mM EDTA. […]

B1: GRIN2B promoter rs3764030 A allele probe (dsDNA)
DNA 1: CATCTCCGGGGAACACGCGAA
DNA 2: TTCGCGTGTTCCCCGGAGATG
Turning to B1, the binding result is reported as “binds”.
